T1: Cμ2 (μ2 residues 160 to 435), P84092
T1 chain: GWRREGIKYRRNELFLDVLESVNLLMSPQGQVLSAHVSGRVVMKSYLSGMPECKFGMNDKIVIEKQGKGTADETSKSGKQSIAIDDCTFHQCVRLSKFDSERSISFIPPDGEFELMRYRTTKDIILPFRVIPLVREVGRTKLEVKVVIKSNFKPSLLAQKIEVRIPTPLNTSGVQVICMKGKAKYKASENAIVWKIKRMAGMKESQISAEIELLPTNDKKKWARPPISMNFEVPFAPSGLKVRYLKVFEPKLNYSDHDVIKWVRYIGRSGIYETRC

B1: FCHO2-N1+N2 (ITC), Q0JRZ9-1 E320A; E321A; K326A (peptide)
chain: NIPDVDAAGYSIAPETNQNDTKENHFYSSSDSDSEDEEPKKYR
B2: FCHO2-N1+N2 (ITC), Q0JRZ9-1 Y340S (protein)
chain: NIPDVDEEGYSIKPETNQNDTKENHFSSSSDSDSEDEEPKKYRIEIKPMHPNNSHHTMASLDELKVSIGNITLSPAISRHS

Target: T1, Cμ2 (μ2 residues 160 to 435), P84092
Assay: ITC
Conditions: chain shown with the change;; parent: 25 ± 1 µM

Binder | Kd
B1 | 110 µM
B2 | 54 µM

— article PMC9054013, “FCHO controls AP2’s initiating role in endocytosis through a PtdIns(4,5)P2-dependent switch” (Science Advances, 2022)
